The results in this text go back to PMC2173428.

Bounds are passed on as bounds.

For the assay, the target named is His-tagged full-length ActA (ActA[1–584Rhis]) (Listeria monocytogenes). Put plainly: co-sedimentation.
Sequence of His-tagged full-length ActA (ActA[1–584Rhis]) (Listeria monocytogenes) (P33379 30-613 limits assumed): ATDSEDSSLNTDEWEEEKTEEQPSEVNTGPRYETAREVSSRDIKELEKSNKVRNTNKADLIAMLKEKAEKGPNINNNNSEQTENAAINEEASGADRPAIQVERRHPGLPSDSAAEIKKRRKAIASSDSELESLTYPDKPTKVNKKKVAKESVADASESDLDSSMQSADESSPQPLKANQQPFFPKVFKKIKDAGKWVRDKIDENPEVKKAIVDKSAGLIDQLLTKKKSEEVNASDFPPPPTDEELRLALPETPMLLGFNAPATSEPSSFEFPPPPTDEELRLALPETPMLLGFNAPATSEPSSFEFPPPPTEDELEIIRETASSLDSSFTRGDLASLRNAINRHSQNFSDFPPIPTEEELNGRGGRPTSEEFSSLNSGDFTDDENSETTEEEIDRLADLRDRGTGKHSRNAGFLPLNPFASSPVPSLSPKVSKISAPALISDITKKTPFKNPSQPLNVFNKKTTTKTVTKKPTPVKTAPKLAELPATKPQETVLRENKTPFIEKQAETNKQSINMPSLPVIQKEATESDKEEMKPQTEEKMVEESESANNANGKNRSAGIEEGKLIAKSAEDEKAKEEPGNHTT

“His-tagged human vasodilator-stimulated phosphoprotein (VASP) (from UniProt P50552 1-380) (natural protein)” gave a percent bound greater than 90%.
